T1: RAD51AP1 WT (UniProt Q96B01 1-352)
T1 sequence: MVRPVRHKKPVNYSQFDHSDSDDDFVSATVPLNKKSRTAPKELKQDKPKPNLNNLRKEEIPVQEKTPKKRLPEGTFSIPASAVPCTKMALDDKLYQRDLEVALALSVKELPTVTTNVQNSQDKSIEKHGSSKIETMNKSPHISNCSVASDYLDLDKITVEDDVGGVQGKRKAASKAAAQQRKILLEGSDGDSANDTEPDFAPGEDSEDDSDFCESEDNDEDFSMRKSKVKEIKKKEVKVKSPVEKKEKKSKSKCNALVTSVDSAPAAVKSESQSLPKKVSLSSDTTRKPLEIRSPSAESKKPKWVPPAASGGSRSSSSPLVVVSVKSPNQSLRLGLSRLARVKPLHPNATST

B1: 63-nt ssRNA (ssRNA)
RNA: AACUUGGUCUGACAGUUACCAAUGCUUAAUCAGUGAGGCACCUAUCUCAGCGAUCUGUCUAUU
B2: 50-nt DNA-RNA hybrid (DNA:RNA)
DNA: ATCATCACCATAACGTCGATGTATCAACTTCGATTAGTCACACCAATTAA
RNA: UUAAUUGGUGUGACUAAUCGAAGUUGAUACAUCGACGUUAUGGUGAUGAU

Molecular target: T1, RAD51AP1 WT
Experiment: EMSA

Binder	binding result
B1	binds
B2	binds

From article PMC8855348
